Test results reported in US20210332120A1.

Target: human IL-17A (human) (UniProt Q16552)
Assay: BLI Octet Red 96; Fab on anti-FABCH1 sensors, IL-17A 30 µg/ml as analyte, 1:1 model

Chain of human IL-17A (human) (Q16552 20-155 limits assumed): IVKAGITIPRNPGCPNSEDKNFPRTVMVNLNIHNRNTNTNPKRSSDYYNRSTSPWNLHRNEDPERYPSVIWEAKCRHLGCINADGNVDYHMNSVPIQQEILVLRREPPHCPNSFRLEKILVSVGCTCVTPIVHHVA

B1: 3VHHVK4B11 Fab (Fab, part only; not given: Light chain VK4B11, tags, not shown: small tags and cut ends)
heavy: QVQLQQSGGGSVQAGGSLRLSCAASGGTFATSPMGWLRQAPGKEREFVAAISPSGGDRIYDDSVKGRFTISRDNAGYFIYLQMNSLKPEDTARYYCAVRRRFDGTSYYTGDYDSWGQGTLVTVSS
- koff: < 2.27e-06 s⁻¹
